Reference: publication PMC10693564 (Nature Communications, 2023)

Molecular target: T1, UBE1L (1-1012aa) (UniProt P41226 1-1012)
T1 construct: In the cryo-EM sample its active-site cysteine was disulfide-linked to Cys86 of UBE2L6; also called UBA7; not shown: GST, N-terminal, cleaved
T1 sequence (looked up): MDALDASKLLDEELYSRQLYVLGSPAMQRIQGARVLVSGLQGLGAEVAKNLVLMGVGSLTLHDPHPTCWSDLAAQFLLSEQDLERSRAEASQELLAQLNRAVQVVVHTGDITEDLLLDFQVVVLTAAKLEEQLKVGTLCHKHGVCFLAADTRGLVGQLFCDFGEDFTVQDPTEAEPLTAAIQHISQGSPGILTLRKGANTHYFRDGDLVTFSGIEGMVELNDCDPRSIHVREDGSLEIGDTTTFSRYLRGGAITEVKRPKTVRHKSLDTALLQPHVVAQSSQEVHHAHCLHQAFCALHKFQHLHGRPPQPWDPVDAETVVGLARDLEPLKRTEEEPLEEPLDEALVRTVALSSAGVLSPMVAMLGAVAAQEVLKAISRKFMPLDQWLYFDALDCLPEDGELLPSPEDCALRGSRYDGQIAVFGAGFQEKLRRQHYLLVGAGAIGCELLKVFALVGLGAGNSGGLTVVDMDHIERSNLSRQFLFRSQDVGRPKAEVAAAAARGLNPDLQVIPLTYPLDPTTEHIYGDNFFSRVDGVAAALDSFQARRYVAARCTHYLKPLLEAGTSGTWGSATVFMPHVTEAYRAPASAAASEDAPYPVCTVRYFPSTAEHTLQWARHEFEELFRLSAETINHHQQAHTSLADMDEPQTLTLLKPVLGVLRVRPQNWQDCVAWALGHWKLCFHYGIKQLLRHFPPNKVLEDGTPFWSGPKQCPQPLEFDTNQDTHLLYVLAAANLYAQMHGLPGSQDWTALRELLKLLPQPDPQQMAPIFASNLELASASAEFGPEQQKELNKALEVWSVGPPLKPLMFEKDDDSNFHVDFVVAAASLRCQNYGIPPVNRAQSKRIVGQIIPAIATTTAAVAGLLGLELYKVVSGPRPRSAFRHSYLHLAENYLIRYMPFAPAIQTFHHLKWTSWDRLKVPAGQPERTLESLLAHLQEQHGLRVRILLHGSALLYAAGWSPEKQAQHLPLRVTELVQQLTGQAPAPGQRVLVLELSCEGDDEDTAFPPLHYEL
Assay: cryo-EM structure
Details: both partners purified

B1: UBE2L6^C86only (enzyme)
chain: MMASMRVVKELEDLQKKPPPYLRNLSSDDANVLVWHALLLPDQPPYHLKAFNLRISFPPEYPFKPPMIKFTTKIYHPNVDENGQICLPIISSENWKPSTKTSQVLEALNVLVNRPNIREPLRMDLADLLTQNPELFRKNAEEFTLRFGVDRPS
notes: non-catalytic cysteines mutated to serine; also called UBE2L6(C98S/C102S); UbcH8; not shown: 6xHis, N-terminal, cleaved; GST, N-terminal, cleaved
**Q.** Does B1 bind?
**A.** binds
